Data on twelve molecules can be found in patent publication US20190038582A1 (published 2019).

The target of series [1] is T1, dephosphorylated Aurora A kinase (Aurora A^122-403) (UniProt O14965 122-403).
T1 chain: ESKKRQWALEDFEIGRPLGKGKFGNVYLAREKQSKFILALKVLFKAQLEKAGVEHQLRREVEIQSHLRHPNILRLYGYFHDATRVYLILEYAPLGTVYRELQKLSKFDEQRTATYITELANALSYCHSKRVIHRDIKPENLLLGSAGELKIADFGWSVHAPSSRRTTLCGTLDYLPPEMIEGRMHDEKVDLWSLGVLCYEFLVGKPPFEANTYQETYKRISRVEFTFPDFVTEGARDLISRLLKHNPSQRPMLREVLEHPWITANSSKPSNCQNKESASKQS
Put plainly: ITC.

Series [2] addresses T2, dephosphorylated Aurora A kinase (Aurora A^122-403) (human, UniProt O14965 122-403).
T2 construct: also called AurA; deP Aurora A^122-403
T2 sequence: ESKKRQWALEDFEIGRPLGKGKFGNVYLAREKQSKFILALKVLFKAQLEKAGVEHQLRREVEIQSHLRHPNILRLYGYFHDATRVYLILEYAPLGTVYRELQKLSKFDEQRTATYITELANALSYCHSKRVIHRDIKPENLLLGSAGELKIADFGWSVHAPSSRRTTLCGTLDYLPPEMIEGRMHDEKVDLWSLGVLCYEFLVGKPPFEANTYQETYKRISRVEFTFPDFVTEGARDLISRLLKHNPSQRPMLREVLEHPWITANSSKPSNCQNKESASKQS
Kind of series: ITC. On the procedure: Error bars in FIGS. 18D and 18F represent the standard error for the estimate of Kd and are a measure of the goodness of fit of the data. Error bars in FIG. 18C were calculated through jackknifing.
(§1) Titrations were carried out using Nano ITC isothermal titration calorimeter (TA Instruments) and analyzed via the NanoAnalyze software using the independent fit model. Injectant was added in 1 μl volume, every 180 s, with a constant stirring speed at 350 rpm and at 25° C.
On the technique in general: ITC needs no label: the signal is the heat of the interaction.

The target of series [3] is T3, Aurora A kinase in HEK293 cells (human, UniProt O14965 1-403).
T3 construct: not on the cell surface; also called Aurora A kinase (endogenous, HEK293)
T3 sequence: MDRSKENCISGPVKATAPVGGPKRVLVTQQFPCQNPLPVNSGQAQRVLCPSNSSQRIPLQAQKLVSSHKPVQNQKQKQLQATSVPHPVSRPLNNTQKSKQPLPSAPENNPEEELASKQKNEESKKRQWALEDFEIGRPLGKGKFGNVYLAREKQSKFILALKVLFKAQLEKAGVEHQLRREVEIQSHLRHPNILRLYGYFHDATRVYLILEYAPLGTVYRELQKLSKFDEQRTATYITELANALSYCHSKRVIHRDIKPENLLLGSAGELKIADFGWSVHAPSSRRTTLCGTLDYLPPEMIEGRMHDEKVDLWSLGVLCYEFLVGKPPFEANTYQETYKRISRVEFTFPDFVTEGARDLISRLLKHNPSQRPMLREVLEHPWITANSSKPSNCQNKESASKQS
Put plainly: immunofluorescence co-localization in HEK293 cells.

Series [4] addresses T1, dephosphorylated Aurora A kinase …. Kind of series: ITC.
Series [5] shares this target. Kind of series: ITC.
Series [6] addresses T2, dephosphorylated Aurora A kinase …. Put plainly: told with the kinase assay results (FIG. 9); method of the affinity not named there.
Series [7] deals with T1, dephosphorylated Aurora A kinase …. Kind of series: ITC.
Series [8] shares this target. Put plainly: ITC.
In series [9] the target is T2, dephosphorylated Aurora A kinase …. Put plainly: ITC; Aurora A pre-saturated with barasertib. As to the method: as §1
In series [10] the target is T4, TPX2.
T4 chain: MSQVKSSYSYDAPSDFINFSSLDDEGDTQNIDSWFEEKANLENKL

Like-named read-outs stand apart in the source and are kept apart here.

B1: monobody Mb56 (AuroraA_56) (designed binder)
chain: GSVSSVPTKLEVVAATPTSLLISWDAMSDWYYWVDYYRITYGETGGNSPVQEFTVPGSYSTATISGLKPGVDYTITVYASDDVWGDYSPISINYRT
notes: FN3-scaffold monobody; also called Mb3
The Kd is the free concentration of one partner at which half of the binding sites on the other are occupied at equilibrium, for simple one-to-one binding. A low value points to higher affinity. The molecule B1 displayed a dissociation constant Kd in series [1] of 163 nM. Besides, in [2], the binding result was “binds”.

B2: sGFP-Mb6 fusion polypeptide (designed binder)
chain: GSVSSVPTKLEVVAATPTSLLISWDAFGHQYEPVYYYRITYGETGGNSPVQEFTVPGYYSTATISGLKPGVDYTITVYAWYVDGSYSSPISINYRT
notes: also called neutral sGFP-Mb6; not shown: supercharged GFP (sGFP)
B2: the binding result in series [3] was “binds”. For the same molecule, in series [4], the affinity, expressed as Kd, was 27.4 nM.

B3: monobody Mb2 (aka Mb6) (AuroraA_2) (designed binder)
chain: GSVSSVPTKLEVVAATPTSLLISWDAFGHQYEPVYYYRITYGETGGNSPVQEFTVPGYYSTATISGLKPGVDYTITVYAWYVDGSYSSPISINYRT
notes: also called neutral monobody
For B3, the Kd in series [5] was determined as 8.7 nM. Moreover, in [6], the binding result was “binds”.

B4: monobody Mb60 (AuroraA_60) (designed binder)
chain: GSVSSVPTKLEVVAATPTSLLISWDAPAVTVVHYVITYGETGGNSPVQEFTVPGSKSTATISGLKPGVDYTITVYAIDFYWGSYSPISINYRT
notes: FN3-scaffold monobody; also called Mb2 (alternative name herein)
Regarding B4, the dissociation constant (Kd) in series [7] amounted to 1000 nM. For the same molecule, in series [2], the binding result was “binds”.

B5: sGFP-Mb60 fusion polypeptide (designed binder)
chain: GSVSSVPTKLEVVAATPTSLLISWDAPAVTVVHYVITYGETGGNSPVQEFTVPGSKSTATISGLKPGVDYTITVYAIDFYWGSYSPISINYRT
notes: also called sGFP-Mb2 (aka Mb60); not shown: supercharged GFP (sGFP)
In the case of B5, the binding result in series [3] and in series [2] was “binds” throughout. For the same molecule, the dissociation constant (Kd) in series [8] is 2500 nM.

B6: monobody Mb54 (AuroraA_54) (designed binder)
chain: GSVSSVPTKLEVVAATPTSLLISWDAQTYQMYDYVSYYRITYGETGGNSPVQEFTVPGYYSTATISGLKPGVDYTITVYAEGYYSSYSPISINYRT
notes: FN3-scaffold monobody; also called Mb1
Consider B6, for which, in series [7], the equilibrium dissociation constant (Kd) was 175 nM. In [2], the binding result is “binds”.

B7: sGFP-Mb54 fusion polypeptide (designed binder)
chain: GSVSSVPTKLEVVAATPTSLLISWDAQTYQMYDYVSYYRITYGETGGNSPVQEFTVPGYYSTATISGLKPGVDYTITVYAEGYYSSYSPISINYRT
notes: also called sGFP-Mb54 (aka Mb1); sGFP-Mb1; not shown: supercharged GFP (sGFP)
On to B7, for which the binding result in series [3] and in series [2] was “binds” throughout. In [4], this molecule came in with a Kd of 121 nM.

B8: monobody Mb44 (AuroraA_44) (designed binder)
chain: GSVSSVPTKLEVVAATPTSLLISWDAPAVTVDFYVITYGETGGYSYPWQEFEVPGSKSTATISGLKPGVDYTITVYADYGQYFYSPISINYRT
notes: FN3-scaffold monobody; also called M44
Turning to B8, in [9], the “fold weakening of binding affinity (Aurora A pre-saturated with barasertib against Aurora A alone)” value amounted to 5 fold. In [1], this molecule registered a Kd of 3280 nM.

B9: Aurora A T288V mutant (A^122-403 T288V) (protein)
chain: ESKKRQWALEDFEIGRPLGKGKFGNVYLAREKQSKFILALKVLFKAQLEKAGVEHQLRREVEIQSHLRHPNILRLYGYFHDATRVYLILEYAPLGTVYRELQKLSKFDEQRTATYITELANALSYCHSKRVIHRDIKPENLLLGSAGELKIADFGWSVHAPSSRRTVLCGTLDYLPPEMIEGRMHDEKVDLWSLGVLCYEFLVGKPPFEANTYQETYKRISRVEFTFPDFVTEGARDLISRLLKHNPSQRPMLREVLEHPWITANSSKPSNCQNKESASKQS
Consider B9, for which, in [10], the “kinase activity (phosphorylation of AP peptide)” value was “greatly increased its kinase activity”.

B10: phosphorylated Aurora A kinase (protein)
chain: ESKKRQWALEDFEIGRPLGKGKFGNVYLAREKQSKFILALKVLFKAQLEKAGVEHQLRREVEIQSHLRHPNILRLYGYFHDATRVYLILEYAPLGTVYRELQKLSKFDEQRTATYITELANALSYCHSKRVIHRDIKPENLLLGSAGELKIADFGWSVHAPSSRRTTLCGTLDYLPPEMIEGRMHDEKVDLWSLGVLCYEFLVGKPPFEANTYQETYKRISRVEFTFPDFVTEGARDLISRLLKHNPSQRPMLREVLEHPWITANSSKPSNCQNKESASKQS
Take B10: the “kinase activity (phosphorylation of AP peptide)” value in [10] is “only slightly increased kinase activity”.

As to MSQVKSSYSYDAPSDFINFSSLDDEGDTQNIDSWFEEKANLENKL (other, also called TPX2 polypeptide) [TPX2], the Kd in series [7] is 5400 nM; in series [2], ~5000 nM.

B11: monobody Mb51 (AuroraA_51) (designed binder)
chain: GSVSSVPTKLEVVAATPTSLLISWDAKPMSYEPVYYYRITYGETGGNSPVQEFTVPGYYSTATISGLKPGVDYTITVYADSMSSYYYSPISINYRT
notes: FN3-scaffold monobody
On to B11, for which the “fold weakening of binding affinity (Aurora A pre-saturated with barasertib against Aurora A alone)” value in [9] amounted to 2.8 fold. Further, in [1], the Kd came out at 76.9 nM.
